T1: ADP103
T1 chain: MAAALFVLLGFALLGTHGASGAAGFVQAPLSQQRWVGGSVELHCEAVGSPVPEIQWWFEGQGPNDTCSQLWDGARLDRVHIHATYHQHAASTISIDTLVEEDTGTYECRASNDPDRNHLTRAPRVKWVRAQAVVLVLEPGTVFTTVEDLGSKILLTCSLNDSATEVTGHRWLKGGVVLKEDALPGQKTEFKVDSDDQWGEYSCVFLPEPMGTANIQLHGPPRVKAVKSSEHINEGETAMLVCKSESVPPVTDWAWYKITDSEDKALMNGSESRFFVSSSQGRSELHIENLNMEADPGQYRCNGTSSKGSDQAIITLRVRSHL

T2: ADP150
T2 chain: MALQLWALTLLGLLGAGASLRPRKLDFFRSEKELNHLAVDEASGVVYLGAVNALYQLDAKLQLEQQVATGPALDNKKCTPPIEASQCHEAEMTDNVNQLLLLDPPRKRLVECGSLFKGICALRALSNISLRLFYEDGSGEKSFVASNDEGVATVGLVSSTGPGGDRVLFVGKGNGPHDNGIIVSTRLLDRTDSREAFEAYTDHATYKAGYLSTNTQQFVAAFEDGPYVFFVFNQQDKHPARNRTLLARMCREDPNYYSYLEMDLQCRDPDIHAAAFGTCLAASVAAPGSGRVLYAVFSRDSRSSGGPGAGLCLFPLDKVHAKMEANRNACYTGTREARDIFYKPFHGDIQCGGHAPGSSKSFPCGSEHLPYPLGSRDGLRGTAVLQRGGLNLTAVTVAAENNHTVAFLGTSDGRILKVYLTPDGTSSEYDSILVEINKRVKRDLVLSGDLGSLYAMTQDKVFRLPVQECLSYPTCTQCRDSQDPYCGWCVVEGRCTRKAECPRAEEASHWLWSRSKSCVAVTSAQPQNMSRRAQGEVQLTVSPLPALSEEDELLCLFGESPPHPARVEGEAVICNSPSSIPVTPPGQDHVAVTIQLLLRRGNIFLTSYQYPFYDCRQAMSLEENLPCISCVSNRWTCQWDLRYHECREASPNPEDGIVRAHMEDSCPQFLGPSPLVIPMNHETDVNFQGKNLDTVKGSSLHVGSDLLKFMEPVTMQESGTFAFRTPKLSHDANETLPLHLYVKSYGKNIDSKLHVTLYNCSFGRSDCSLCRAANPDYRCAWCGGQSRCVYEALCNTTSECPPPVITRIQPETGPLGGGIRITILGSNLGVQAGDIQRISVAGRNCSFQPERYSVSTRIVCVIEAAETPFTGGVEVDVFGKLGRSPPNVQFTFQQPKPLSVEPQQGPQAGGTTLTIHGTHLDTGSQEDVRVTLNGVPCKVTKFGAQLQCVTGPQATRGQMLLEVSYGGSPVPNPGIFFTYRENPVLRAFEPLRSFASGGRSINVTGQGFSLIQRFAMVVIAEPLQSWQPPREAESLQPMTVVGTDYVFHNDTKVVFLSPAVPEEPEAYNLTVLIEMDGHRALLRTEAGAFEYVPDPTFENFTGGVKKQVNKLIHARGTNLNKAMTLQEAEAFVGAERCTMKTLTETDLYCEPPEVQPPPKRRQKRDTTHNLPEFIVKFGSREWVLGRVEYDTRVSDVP

T3: ADP372
T3 chain: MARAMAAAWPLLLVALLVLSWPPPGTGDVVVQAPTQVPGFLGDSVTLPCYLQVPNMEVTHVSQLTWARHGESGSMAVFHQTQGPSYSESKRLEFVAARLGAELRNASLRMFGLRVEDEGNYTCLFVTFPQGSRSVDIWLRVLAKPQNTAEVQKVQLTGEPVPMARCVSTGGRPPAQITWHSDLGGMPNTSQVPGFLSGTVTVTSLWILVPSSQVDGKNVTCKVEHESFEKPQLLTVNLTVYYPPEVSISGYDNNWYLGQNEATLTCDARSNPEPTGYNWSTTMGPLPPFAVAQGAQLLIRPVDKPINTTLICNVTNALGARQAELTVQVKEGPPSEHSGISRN

T4: ADP133
T4 chain: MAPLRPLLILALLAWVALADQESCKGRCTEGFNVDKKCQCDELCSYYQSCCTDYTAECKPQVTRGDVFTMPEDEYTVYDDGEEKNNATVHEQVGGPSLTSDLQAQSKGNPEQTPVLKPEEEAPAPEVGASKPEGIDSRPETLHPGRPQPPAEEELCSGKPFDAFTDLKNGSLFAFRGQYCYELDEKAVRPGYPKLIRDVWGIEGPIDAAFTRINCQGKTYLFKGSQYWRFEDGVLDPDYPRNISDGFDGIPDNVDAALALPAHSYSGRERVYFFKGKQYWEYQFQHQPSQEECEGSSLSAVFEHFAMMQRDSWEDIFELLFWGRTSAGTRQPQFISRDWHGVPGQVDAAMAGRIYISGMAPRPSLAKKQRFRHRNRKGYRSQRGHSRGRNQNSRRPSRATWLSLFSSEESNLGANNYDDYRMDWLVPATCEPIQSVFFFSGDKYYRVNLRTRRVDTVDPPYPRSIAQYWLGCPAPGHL

T5: ADP315
T5 chain: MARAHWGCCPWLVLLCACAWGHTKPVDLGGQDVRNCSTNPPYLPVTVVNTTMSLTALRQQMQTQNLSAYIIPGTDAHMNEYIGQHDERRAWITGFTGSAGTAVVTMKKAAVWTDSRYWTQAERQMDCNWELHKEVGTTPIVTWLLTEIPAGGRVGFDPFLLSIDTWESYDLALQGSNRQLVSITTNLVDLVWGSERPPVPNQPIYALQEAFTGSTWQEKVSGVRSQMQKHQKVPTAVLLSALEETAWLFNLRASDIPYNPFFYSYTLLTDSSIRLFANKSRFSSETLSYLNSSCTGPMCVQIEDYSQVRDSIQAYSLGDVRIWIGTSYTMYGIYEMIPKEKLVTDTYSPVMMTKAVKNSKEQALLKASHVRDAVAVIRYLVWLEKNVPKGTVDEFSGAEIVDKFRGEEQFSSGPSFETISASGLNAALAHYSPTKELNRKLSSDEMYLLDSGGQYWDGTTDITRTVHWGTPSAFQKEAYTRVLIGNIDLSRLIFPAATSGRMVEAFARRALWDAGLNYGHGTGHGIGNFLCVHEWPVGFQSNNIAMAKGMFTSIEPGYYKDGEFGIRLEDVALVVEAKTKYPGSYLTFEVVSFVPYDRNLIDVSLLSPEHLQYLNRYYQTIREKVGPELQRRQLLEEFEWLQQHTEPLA


Tests used:
Assay in all cases: AVEXIS screen signal:noise (double-corrected)
[1] = biological target: T1, ADP103
[2] = biological target: T2, ADP150
[3] = biological target: T3, ADP372
[4] = biological target: ADP323
[5] = biological target: T4, ADP133
[6] = biological target: T5, ADP315
[7] = biological target: ADP110
[8] = biological target: ADP112

Row | Binder | binding score [1] | binding score [2] | binding score [3] | binding score [4] | binding score [5] | binding score [6] | binding score [7] | binding score [8]
1 | ADP178 (protein, bait human Fc-tagged dimer; N-glycosylation sequons mutated in Plasmodium baits) SDTFRVFEDFDVRRKNKIWCCNLNHEKSYFHNKAINTAYKNRVLKESILLNLDLDMKKYKDNIITRKKTPENIYKEIYENNYEMKYDEDIPNNMAEEKRDEKEVIEHLEIDEKNGKQYKSDINKPVSLSHLKQYKNIYVNNNNKINKKKSIDKHLPSYNLERKNNKYLNFLLVDNRNEAYTFMVPMKFYINHEMYNIADEEYNKLMEDNSVDVYLNNILVEYKYENFEIKEGEVDGEVEGEGEVEGEVEGEVKGKVVEGIENNMNEEEKYNKDNKDKENQINSNGQDENTEFQENDNNDAVIMKYT | 10.2 | 8.31 | 5.47 | – | – | – | – | –
2 | ADP173 (protein, bait human Fc-tagged dimer; N-glycosylation sequons mutated in Plasmodium baits) EVESSDSTSFLNLISGQSSSNSDDTVSSSDSRGVVASVSGTVDSDVSRTDSTGNVNSKNSELSETRQNSVEQNNNANSADNSIKIKSAFLKENVGVKITGPCDEGFGLVMVPHIIINVDTRNTDIQLGKKSSEINYGIKLRKKGKDEYEEKVGIDLLKNVCETGKNFKFVAYIKGDELIIKWKVIEEGNIPIDIKKFKIKRMSPPITSIQVFSSMSDEKSFVLENKNYVVTNNMPEKCEALATNCFLSGNIDIEKCYQCSLLVENDAKSDVCYNFISRENKEKLNEERFKVKGSTEYEESVESELKGAIDLLISSFYKSDGENGENVLISFEDLNSALEDDIINFCSLLKLVDLSGTFMNHQIGTTADAFNNIVKLLKEHKEEDEFVLRTKLRNPALCMKNVDDWVKSRCGLLTSDDSYVVIKKNSDTNGKNENNEANDEEYDGVIDLSTNENGNVKSIQFNDDIYCNDDYCNRWKNENNCISKIGVEDQGNCASSWAFASKLHFETLRCMKGYDHLGISALYLTNCAKGKISKRCTEGGNPAEFLEIVSNSGFLPTEFDYPYFYALVENSCPSGLNKWINLWEDVKLFDYKYEPNSIGSKGYSVYKSEMFKDNMDEYVKMIKSEIKNKGSVIAYINAQSVLTYDFNGKNILNMCGSKTTDHSINVIGYGHYKNKEGEEKSYWLVRNSWGYYWGDEGNFKVDMYGPSNCNYHFINTVLVFNIDIPMMNNNENNKKGLYNYFPKYTHEFYHNFYDQNFGSDNKISLINSNGANKNDVNNAYTVHGQSGETEVQPSQLRSTANQDSNRGAVTSDPLRTQPETTSTSVKKMDVFQVLKHVKNSKIKVGLIKYDNDDEIGAHHSCTRAYSFDPEKYDECVEFCRKNWEQCKDKPSPGFCLTKLDESKGCFFCYV | 7.09 | – | – | 7.35 | 6.59 | 5.31 | – | –
3 | ADP189 (protein, bait human Fc-tagged dimer; N-glycosylation sequons mutated in Plasmodium baits) NNIAHKEDDCGASELAIKKLQELKKFELDILKDFIKKDTDHTDMYKRYHCISSDFLKNTKQEDKKEDNYAKKEDKKDIENSANYIINNKNEKISFINKIISFVGMWNYNKYGNNIQESKNKINIYNNNNNKAENELLYNKEDYTNHIPTNENPNSYMQLSAFNLAKKSMFLGGKDNAAQNFEVGNYGSFYMIFGARNTDYPWACSCDTLQLEEYKEKKRSYVLCSNQLDMSIQNSDLFCNPKN | – | – | – | – | – | – | 34.1 | 7.26
